Source: article PMC12839305 (Biomolecules, 2025)

T1: LRP1 cluster II (CL II, 786–1165 aa) (human, UniProt Q07954 786-1165)
T1 construct: not shown: FLAG or 6 × HIS (same vector as Gn)
T1 sequence: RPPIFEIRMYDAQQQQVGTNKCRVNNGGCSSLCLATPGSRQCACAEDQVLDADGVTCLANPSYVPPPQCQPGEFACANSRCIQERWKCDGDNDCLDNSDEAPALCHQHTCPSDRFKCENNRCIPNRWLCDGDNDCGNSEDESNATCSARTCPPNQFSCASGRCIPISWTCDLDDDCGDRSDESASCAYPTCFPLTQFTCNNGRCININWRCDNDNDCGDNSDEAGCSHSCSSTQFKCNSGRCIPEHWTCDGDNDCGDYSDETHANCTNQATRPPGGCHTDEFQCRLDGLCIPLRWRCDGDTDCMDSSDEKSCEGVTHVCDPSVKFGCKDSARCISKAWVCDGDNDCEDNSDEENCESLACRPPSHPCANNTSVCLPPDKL

B1: RVFV glycoprotein Gn head domain (154–469 aa) (domain or fragment)
chain: EDPHLRNRPGKGHNYIDGMTQEDATCKPVTYAGACSSFDVLLEKGKFPLFQSYAHHRTLLEAVHDTIIAKADPPSCDLLSAHGNPCMKEKLVMKTHCPNDYQSAHHLNNDGKMASVKCPPKYELTEDCNFCRQMTGASLKKGSYPLQDLFCQSSEDDGSKLKTKMKGVCEVGVQALKKCDGQLSTAHEVVPFAVFKNSKKVYLDKLDLKTEENLLPDSFVCFEHKGQYKGTMDSGQTKRELKSFDISQCPKIGGHGSKKCTGDAAFCSAYECTAQYANAYCSHANGSGIVQIQVSGVWKKPLCVGYERVVVKRELS
B2: LRP1 CL IV-B, repeats A25–A28 (3492–3649 aa) (domain or fragment)
chain: not shown
B3: LRP1 CL IV-A, repeats A21–A24 (3332–3491 aa) (domain or fragment)
chain: not shown

Assays:
Conditions in all cases: both partners purified
[1] = target: T2, LRP1 cluster IV (CL IV, 3332–3779 aa) (human, UniProt Q07954 3332-3779); assay: BLI
T2 sequence (Q07954 3332-3779): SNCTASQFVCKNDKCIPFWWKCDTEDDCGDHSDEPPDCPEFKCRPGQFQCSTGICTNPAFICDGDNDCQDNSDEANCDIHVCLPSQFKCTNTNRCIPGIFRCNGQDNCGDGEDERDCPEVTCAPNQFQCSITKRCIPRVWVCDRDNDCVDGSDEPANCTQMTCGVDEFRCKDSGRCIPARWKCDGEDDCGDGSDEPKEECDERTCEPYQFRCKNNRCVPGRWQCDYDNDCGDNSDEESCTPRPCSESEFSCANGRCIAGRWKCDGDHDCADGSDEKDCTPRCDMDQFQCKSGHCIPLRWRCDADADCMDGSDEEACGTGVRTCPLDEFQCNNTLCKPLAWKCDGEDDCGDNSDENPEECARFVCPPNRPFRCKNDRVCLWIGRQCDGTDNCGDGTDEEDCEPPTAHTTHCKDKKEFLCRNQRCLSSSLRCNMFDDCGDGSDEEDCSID

[2] = target: T1, LRP1 cluster II (CL II, 786–1165 aa); assay: BLI
[3] = target: T2, LRP1 cluster IV (CL IV, 3332–3779 aa); assay: BLI; […]; 300 s association, 300 s dissociation; […], global 1:1 model; Octet RED96
[4] = target: T1, LRP1 cluster II (CL II, 786–1165 aa); assay: as above
[5] = target: B1; assay: as above

Binder | Kd [1] | Kd [2] | Kd [3] | Kd [4] | Kd [5]
B1 | 120 nM | 220 nM | 56 nM | 89 nM | –
B2 | – | – | – | – | 36 nM
B3 | – | – | – | – | 72 nM
